The values below come from patent US20120141538A1 (UNIVERSITE PIERRE ET MARIE CURIE PARIS VI, published 2012).

Experiment [1] addresses T1, human CX3CR1 receptor (human, UniProt P49238 1-355).
T1 construct: Expressed on stably transfected HEK or CHO cells, or endogenous on human PBMC (CD8+ T cells, NK cells); also called HEK-CX3CR1 cells; CHO-CX3CR1 cells
T1 sequence: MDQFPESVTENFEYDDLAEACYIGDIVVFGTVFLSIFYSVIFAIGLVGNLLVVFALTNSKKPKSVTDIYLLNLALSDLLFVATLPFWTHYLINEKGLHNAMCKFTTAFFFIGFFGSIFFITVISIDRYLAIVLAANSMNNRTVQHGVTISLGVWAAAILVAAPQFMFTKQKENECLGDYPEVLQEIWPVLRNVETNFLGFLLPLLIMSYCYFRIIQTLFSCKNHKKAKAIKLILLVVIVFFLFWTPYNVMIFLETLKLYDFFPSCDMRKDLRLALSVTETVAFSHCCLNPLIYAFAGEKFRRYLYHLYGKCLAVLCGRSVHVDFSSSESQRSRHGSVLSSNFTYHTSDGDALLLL
Description: phage display selection on HEK-CX3CR1 cells, recovery of endocytosed phages.

For experiment [2], the target named is T1, human CX3CR1 receptor. Description: phage display selection on HEK-CX3CR1 cells, elution with soluble CX3CL1. The protocol: Phage particles are represented as cylinders (encapsulated phage genome) with multiple heads (pIII-CX3CL1 mutant fusion). […] (3) Stringent washing was used to remove nonspecifically bound phage. (4) An excess of soluble CX3CL1 (sCX3CL1) was added to remove surface-associated phage. Eluted phages were allowed to infect E. coli, and stocks of selected phages were prepared to be used in a new round of selection (steps 1 to 4).
A phage library of CX3CL1 mutants (10¹⁰ CFU) was directly incubated with 5.10⁶ HEK-CX3CR1 or HEK-CCR5 cells growing in 25 cm² tissue culture flasks (Becton Dickinson, Le Pont de Claix, France) at 37° C. at 5% CO₂ in 5 ml of supplemented RPMI-1640 medium. After 1 h, cells were washed 10 times at room temperature with 10 ml of phosphate-buffered saline (PBS) and then scraped from the plate into 10 ml of PBS-0.5% BSA. Cells were then pelleted and incubated for 20 min on ice in elution buffer consisting of an excess of soluble CX3CL1 (10 μM in 100 μl PBS-BSA). Cells were centrifuged (1000×g for 5 min) and supernatant was mixed with log-phase E. coli TG1 for production and purification of stock phage to be used in further rounds of selection, as described by Hartley et al. (2003, J Virol 77, 6637-44).

Residue numbers refer to the chain shown, from its start.

B1: phage-displayed CX3CL1 mutant with N-terminal sequence AAQGMS (other, not shown: large carriers)
chain: AAQGMSKCNITCSKMTSKIPVALLIHYQQNQASCGKRAIILETRQHRLFCADPKEQWVKDAMQHLDRQAAALTRNG
notes: Selected phage clone (agonist selection); not tested singly
Take B1: the binding result in the experiment with human CX3CR1 receptor [1] was “binds”.

B2: phage-displayed CX3CL1 mutant with N-terminal sequence QPSALS (other, not shown: large carriers)
chain: B1 chain with A1Q, A2P, Q3S, G4A, M5L
notes: as for B1
As for B2, the binding result in the experiment with human CX3CR1 receptor [1] is on record as “binds”.

B3: phage-displayed CX3CL1 mutant with N-terminal sequence QPYGMS (other, not shown: large carriers)
chain: B1 chain with A1Q, A2P, Q3Y
notes: as for B1
In the case of B3, in the experiment with human CX3CR1 receptor [1], the binding result was “binds”.

B4: phage-displayed CX3CL1 mutant with N-terminal sequence QPHGVA (other, not shown: large carriers)
chain: B1 chain with A1Q, A2P, Q3H, M5V, S6A
notes: as for B1
For the molecule B4, in the experiment with human CX3CR1 receptor [1], the binding result was “binds”.

B5: phage-displayed CX3CL1 mutant with N-terminal sequence QSLVLP (other, not shown: large carriers)
chain: B1 chain with A1Q, A2S, Q3L, G4V, M5L, S6P
notes: Selected phage clone (antagonist selection); not tested singly
As for B5, in the experiment with human CX3CR1 receptor [2], the binding result is recorded as “binds”.

B6: phage-displayed CX3CL1 mutant with N-terminal sequence QPRALP (other, not shown: large carriers)
chain: B1 chain with A1Q, A2P, Q3R, G4A, M5L, S6P
notes: as for B1
Turning to B6, in the experiment with human CX3CR1 receptor [1], the binding result is given as “binds”.

B7: phage-displayed CX3CL1 mutant with N-terminal sequence QPYGVS (other, not shown: large carriers)
chain: B1 chain with A1Q, A2P, Q3Y, M5V
notes: as for B1
Regarding B7, the binding result with human CX3CR1 receptor [1] is listed as “binds”.

B8: phage-displayed CX3CL1 mutant with N-terminal sequence QLQGLA (other, not shown: large carriers)
chain: B1 chain with A1Q, A2L, M5L, S6A
notes: as for B1
As to B8, the binding result in the experiment with human CX3CR1 receptor [1] is given as “binds”.

B9: phage-displayed CX3CL1 mutant with N-terminal sequence QVQGVT (other, not shown: large carriers)
chain: B1 chain with A1Q, A2V, M5V, S6T
notes: as for B1
As for B9, the binding result with human CX3CR1 receptor [1] is “binds”.

B10: phage-displayed CX3CL1 mutant with N-terminal sequence QPQGLA (other, not shown: large carriers)
chain: B1 chain with A1Q, A2P, M5L, S6A
notes: as for B1
With B10, the binding result with human CX3CR1 receptor [1] is “binds”.

B11: phage-displayed CX3CL1 mutant with N-terminal sequence QHLGLS (other, not shown: large carriers)
chain: B1 chain with A1Q, A2H, Q3L, M5L
notes: as for B1
B11: in the experiment with human CX3CR1 receptor [1], the binding result is “binds”.

B12: phage-displayed CX3CL1 mutant with N-terminal sequence QPVGLS (other, not shown: large carriers)
chain: B1 chain with A1Q, A2P, Q3V, M5L
notes: as for B1
On to B12, for which the binding result in the experiment with human CX3CR1 receptor [1] is “binds”.

B13: phage-displayed CX3CL1 mutant with N-terminal sequence QSLGVS (other, not shown: large carriers)
chain: B1 chain with A1Q, A2S, Q3L, M5V
notes: as for B1
Take B13: the binding result with human CX3CR1 receptor [1] is “binds”.

B14: phage-displayed CX3CL1 mutant with N-terminal sequence QPMGVA (other, not shown: large carriers)
chain: B1 chain with A1Q, A2P, Q3M, M5V, S6A
notes: as for B1
For B14, in the experiment with human CX3CR1 receptor [1], the binding result is given as “binds”.

B15: phage-displayed CX3CL1 mutant with N-terminal sequence QSPGMS (other, not shown: large carriers)
chain: B1 chain with A1Q, A2S, Q3P
notes: as for B1
With B15, in the experiment with human CX3CR1 receptor [1], the binding result was “binds”.

B16: phage-displayed CX3CL1 mutant with N-terminal sequence QPVALA (other, not shown: large carriers)
chain: B1 chain with A1Q, A2P, Q3V, G4A, M5L, S6A
notes: as for B1
As to B16, the binding result with human CX3CR1 receptor [1] is on record as “binds”.

B17: phage-displayed CX3CL1 mutant with N-terminal sequence QPGGVS (other, not shown: large carriers)
chain: B1 chain with A1Q, A2P, Q3G, M5V
notes: as for B1
Regarding B17, the binding result with human CX3CR1 receptor [1] was “binds”.

B18: phage-displayed CX3CL1 mutant with N-terminal sequence GPQAMS (other, not shown: large carriers)
chain: B1 chain with A1G, A2P, G4A
notes: as for B1
For the molecule B18, the binding result in the experiment with human CX3CR1 receptor [1] was “binds”.

B19: phage-displayed CX3CL1 mutant with N-terminal sequence QPSGMS (other, not shown: large carriers)
chain: B1 chain with A1Q, A2P, Q3S
notes: as for B1
As for B19, the binding result in the experiment with human CX3CR1 receptor [1] is “binds”.

B20: phage-displayed CX3CL1 mutant with N-terminal sequence QLFALS (other, not shown: large carriers)
chain: B1 chain with A1Q, A2L, Q3F, G4A, M5L
notes: as for B5
In the case of B20, the binding result with human CX3CR1 receptor [2] is “binds”.

B21: phage-displayed CX3CL1 mutant with N-terminal sequence QPVAVA (other, not shown: large carriers)
chain: B1 chain with A1Q, A2P, Q3V, G4A, M5V, S6A
notes: as for B1
Turning to B21, the binding result in the experiment with human CX3CR1 receptor [1] was “binds”.

B22: phage-displayed CX3CL1 mutant with N-terminal sequence QPSALT (other, not shown: large carriers)
chain: B1 chain with A1Q, A2P, Q3S, G4A, M5L, S6T
notes: as for B1
B22: the binding result in the experiment with human CX3CR1 receptor [1] was “binds”.

B23: phage-displayed CX3CL1 mutant with N-terminal sequence QPVAVS (other, not shown: large carriers)
chain: B1 chain with A1Q, A2P, Q3V, G4A, M5V
notes: as for B1
In the case of B23, the binding result with human CX3CR1 receptor [1] is “binds”.

B24: phage-displayed CX3CL1 mutant with N-terminal sequence QFPGVS (other, not shown: large carriers)
chain: B1 chain with A1Q, A2F, Q3P, M5V
notes: as for B1
Turning to B24, in the experiment with human CX3CR1 receptor [1], the binding result is reported as “binds”.

B25: phage-displayed CX3CL1 mutant with N-terminal sequence QPGAVS (other, not shown: large carriers)
chain: B1 chain with A1Q, A2P, Q3G, G4A, M5V
notes: as for B1
With B25, in the experiment with human CX3CR1 receptor [1], the binding result is recorded as “binds”.

B26: phage-displayed CX3CL1 mutant with N-terminal sequence QLLGVS (other, not shown: large carriers)
chain: B1 chain with A1Q, A2L, Q3L, M5V
notes: as for B1
Take B26: the binding result in the experiment with human CX3CR1 receptor [1] is listed as “binds”.

B27: phage-displayed CX3CL1 mutant with N-terminal sequence QPQAVS (other, not shown: large carriers)
chain: B1 chain with A1Q, A2P, G4A, M5V
notes: as for B1
Take B27: the binding result in the experiment with human CX3CR1 receptor [1] is “binds”.

B28: phage-displayed CX3CL1 mutant with N-terminal sequence VQSVLS (other, not shown: large carriers)
chain: B1 chain with A1V, A2Q, Q3S, G4V, M5L
notes: as for B5
In the case of B28, in the experiment with human CX3CR1 receptor [2], the binding result is “binds”.

B29: phage-displayed CX3CL1 mutant with N-terminal sequence NPQALS (other, not shown: large carriers)
chain: B1 chain with A1N, A2P, G4A, M5L
notes: as for B1
For the molecule B29, the binding result with human CX3CR1 receptor [1] is “binds”.

B30: phage-displayed CX3CL1 mutant with N-terminal sequence ILDNGVA (other, not shown: large carriers)
chain: ILDNGVAKCNITCSKMTSKIPVALLIHYQQNQASCGKRAIILETRQHRLFCADPKEQWVKDAMQHLDRQAAALTRNG
notes: as for B5
In the case of B30, the binding result in the experiment with human CX3CR1 receptor [2] is given as “binds”.

B31: phage-displayed CX3CL1 mutant with N-terminal sequence QPLFAVA (other, not shown: large carriers)
chain: B30 chain with I1Q, L2P, D3L, N4F, G5A
notes: as for B5
As for B31, the binding result in the experiment with human CX3CR1 receptor [2] was “binds”.

B32: phage-displayed CX3CL1 mutant with N-terminal sequence SLDHGLS (other, not shown: large carriers)
chain: B30 chain with I1S, N4H, V6L, A7S
notes: as for B5
Take B32: the binding result with human CX3CR1 receptor [2] is reported as “binds”.

B33: phage-displayed CX3CL1 mutant with N-terminal sequence ILDGGVS (other, not shown: large carriers)
chain: B30 chain with N4G, A7S
notes: as for B5
Take B33: the binding result in the experiment with human CX3CR1 receptor [2] is “binds”.

B34: phage-displayed CX3CL1 mutant with N-terminal sequence ILDLGLT (other, not shown: large carriers)
chain: B30 chain with N4L, V6L, A7T
notes: as for B5
Consider B34, for which the binding result with human CX3CR1 receptor [2] is “binds”.

B35: phage-displayed CX3CL1 mutant with N-terminal sequence QRDSVLA (other, not shown: large carriers)
chain: B30 chain with I1Q, L2R, N4S, G5V, V6L
notes: as for B5
On to B35, for which the binding result in the experiment with human CX3CR1 receptor [2] was “binds”.

B36: phage-displayed CX3CL1 mutant with N-terminal sequence ILDLGLS (other, not shown: large carriers)
chain: B30 chain with N4L, V6L, A7S
notes: as for B5
Regarding B36, the binding result with human CX3CR1 receptor [2] is reported as “binds”.

B37: phage-displayed CX3CL1 mutant with N-terminal sequence WLSQGLA (other, not shown: large carriers)
chain: B30 chain with I1W, D3S, N4Q, V6L
notes: as for B5
For the molecule B37, in the experiment with human CX3CR1 receptor [2], the binding result is given as “binds”.

B38: phage-displayed CX3CL1 mutant with N-terminal sequence TLPQGLA (other, not shown: large carriers)
chain: B30 chain with I1T, D3P, N4Q, V6L
notes: as for B5
With B38, the binding result in the experiment with human CX3CR1 receptor [2] is “binds”.

B39: phage-displayed CX3CL1 mutant with N-terminal sequence TLAQGLP (other, not shown: large carriers)
chain: B30 chain with I1T, D3A, N4Q, V6L, A7P
notes: as for B5
B39: in the experiment with human CX3CR1 receptor [2], the binding result is “binds”.

B40: phage-displayed CX3CL1 mutant with N-terminal sequence SLIPVVP (other, not shown: large carriers)
chain: B30 chain with I1S, D3I, N4P, G5V, A7P
notes: as for B5
Regarding B40, in the experiment with human CX3CR1 receptor [2], the binding result is reported as “binds”.

B41: phage-displayed CX3CL1 mutant with N-terminal sequence FLQSDVA (other, not shown: large carriers)
chain: B30 chain with I1F, D3Q, N4S, G5D
notes: as for B5
As to B41, in the experiment with human CX3CR1 receptor [2], the binding result was “binds”.

B42: phage-displayed CX3CL1 mutant with N-terminal sequence ILGRDVA (other, not shown: large carriers)
chain: B30 chain with D3G, N4R, G5D
notes: as for B5
As to B42, the binding result in the experiment with human CX3CR1 receptor [2] is “binds”.
